Key:
[1] = target: NCp7 (nucleocapsid protein, Zn2.NCp7(1-55)) (HIV-1) (UniProt P35962); conditions: Trp assay; virtually identical Kd
[2] = target: NCp7 (nucleocapsid protein, Zn2.NCp7(1-55)) (HIV-1) (UniProt P35962); conditions: virtually no change in Kd
[3] = target: T1, NCp7 (nucleocapsid protein, Zn2.NCp7(1-55)) (HIV-1, UniProt P35962 SEQ:1-55); experiment: Trp assay; K2 similar to that of SL3 RNA; conditions: label: 5'-dabcyl, T-FAM at 17 of the all-DNA strand; tethered duplex with hairpins (O-form favoured)
T1 chain: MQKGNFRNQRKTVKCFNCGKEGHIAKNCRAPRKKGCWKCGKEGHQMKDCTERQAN

[4] = target: T1, NCp7 (nucleocapsid protein, …); experiment: equilibration with NCp7 within a minute at 10 nM switch; conditions: label: 5'-dabcyl, T-FAM at 17 of the all-DNA strand; tethered duplex switch

| Molecule | binding signal (fold Kd vs SL3) [2] | further results |
| --- | --- | --- |
| SL3 16mer | – | binding signal (fold Kd vs SL3 20mer) [1]: 1 |
| SL3 A315-U322 | 1 | – |
| SL3 C315-G | 1 | – |
| SL3 G316-C321 | 1 | – |
| M2 tethered switch (mixed, DNA strand / DNA-RNA chimera (UAGCGGUGGCUAGC is RNA)) DNA: GCATGCCTCCGCATGCTCACAGCACGACTCAGATGG mixed: CCATCTGAGTCGTGCACGCUAGCGGUGGCUAGC | – | binding signal [3]: ~1 fold K2 vs SL3 RNA |
| M3 tethered switch (mixed, DNA strand / DNA-RNA chimera (UAGCGGUGGCUAGC is RNA)) DNA: GCTATCCACCGATAGCTCACAGCACGACTCAGATGG mixed: CCATCTGAGTCGTGCACGCUAGCGGUGGCUAGC | – | binding result [4]: binds |
